{
  "source": "patent US8226967B2",
  "about": "“Surface active proteins as excipients in solid pharmaceutical formulations” (BASF SE, priority 2008, dated 2012)",
  "format_in_all_cases": "physicochemical",
  "key": {"[1]": {"assay": "Dissolution test of Traumeel S tablets coated with alginate/hydrophobin biopolymer", "conditions": "Traumeel S tablets coated with 2% alginate containing 200 μg/ml protein, 0.1 M HCl pH 1, ambient temperature, FIG. 5A", "procedure": "Homeopathic Traumeel®S tablets (Heel GmbH, Baden Baden, Germany) are used for coating experiments. These tablets are highly soluble and are formulated based on lactose monohydrate and magnesium stearate. […] Tablets are then immersed immediately into a solution of 0.1 M CaCl2 and dried at room temperature. For the dissolution test, tablets are immersed in 50 ml 0.1 M HCl at room temperature.\nTraumeel® S (Heel) tablets are coated with hydrophobin, and resistance to acidic conditions of pH 1.0 is tested in a dissolution assay. Traumeel® S tablets are submersed in a solution of 2% alginate, containing 200 μg/ml TT, PO, TR or SC, respectively. […] After short submersion, alginate-coated tablets are allowed to polymerise in 0.1M CaCl2 and dried over night at ambient temperature.\nThe incubation for the dissolution test is at ambient temperature in 0.1M HCl for 10 to 120 min. Results: The coating of tablets with a biopolymer consisting of alginate with an admixture of hydrophobin yields beneficial properties regarding sustained release of a pharmaceutical composition."}, "[2]": {"assay": "Dissolution of gelatine films with or without hydrophobin", "conditions": "gelatine with 200 μg/ml hydrophobin", "procedure": "Gelatine (stained red, purchased from RUF, Quakenbrück, Germany) is solubilized in water or a SC-solution (final concentration 200 μg/ml). 500 μl solubilized gelatine is added per well of a 6-well macroplate. Gelatine is dried over night at 50° C. Then 500 μl H2O, 0.1 N HCl or 0.1 N HCl with 0.4 U/ml pepsin, respectively, are added to the wells."}, "[3]": {"assay": "Release of indicator dye from gelatine capsules coated with alginate/hydrophobin biopolymer", "text": "(§1) For setting up the leakage experiments, gelatine capsules with a volume of 0.68 cm^3 (Capsulae operculatae Nr. 0, Pharmapol GmbH, D-25578 Dageling) are filled with the indicator dye bromo phenol blue. The capsules are filled with equal weight proportions of mannitol, sodium hydrogen carbonate, trisodium citrate dehydrogenate and water-soluble bromo phenol blue and closed by joining the upper and lower part of the capsule tightly. To avoid unspecific leakage from the capsule, the joint is sealed.\nFilled and sealed capsules were submerged in a solution of 2% w/v alginate (E400) containing 200 μg/ml hydrophobin for 10 seconds. […] Crosslinking of alginate is accomplished by subsequent submerging in 0.1 M CaCl2. Subsequently, the capsules are dried at room temperature.\n(§2) For testing the release of dye from the capsules after different surface treatments, the capsules are submerged in 50 ml 0.1 M HCl corresponding to a pH of 1.0 in order to mimic the acidic environment in the stomach. In a second setup, 0.4 U/ml pepsin are added to the 0.1 M HCl to test for resistance to a typical enzyme in the stomach juice. Quantification of the release is accomplished by computer aided optical evaluation of different areas of the solution in the immersion bath leading to arbitrary luminance units.\nHydrophobin SC is prepared and the gelatine capsules are filled with indicator dye as described above. Filled and sealed capsules are submerged in a solution of 2% w/v alginate (E400) containing 200 μg/ml hydrophobin.\nThree hydrophobins are used to test if the modulation of the release kinetics of alginate coated gelatine capsules can be achieved with different hydrophobins. SC is prepared as described further above. Two additional hydrophobins are recombinantly produced in a similar procedure as described for SC. TT is from Talaromyces thermophilus and PO from Pleurotus ostreatus. Capsules are filled with indicator dye, sealed and immersed in a mixture of alginate and hydrophobin SC, TT or PO, respectively, as described in examples 1 and 2. As a control, an admixture of alginate and BSA is used. […]"}, "[4]": {"assay": "Release of indicator dye from gelatine capsules coated by spraying with hydrophobin", "conditions": "for release of dye from capsules (retention of dye within the capsule): gelatine capsules sprayed with 200 μg/ml hydrophobin in water, 0.1 M HCl pH 1.0, interval of observation 2 hours, FIG. 1A", "text": "as §1\nThe filled and sealed capsules are sprayed using a commercially available nebuliser with a solution of 200 μg/ml SC in water.\nas §2\nThe release of dye from capsules coated by spraying with hydrophobins or as a control with water, respectively, is assayed in an acidic environment to mimic stomach conditions. The amount of dye contained in the immersion bath is measured by optical evaluation and given as arbitrary luminance units."}},
  "data": [
    {"molecule": "SC: class I hydrophobin from Schizophyllum commune, accession P16933, recombinant his-tagged from E. coli (protein, UniProt P16933 25-136, looked up, His tag) Class I hydrophobin SC3: GGHPGTTTPPVTTTVTVTTPPSTTTIAAGGTCTTGSLSCCNQVQSASSSPVTALLGLLGIVLSDLNVLVGISCSPLTVIGVGGSGCSAQTVCCENTQFNGLINIGCTPINIL", "values": [
      {"measurement": "resistance to dissolution of the coated tablet (integrity of tablets)", "setting": "[1]", "result": "superior to the class II hydrophobin TR"},
      {"measurement": "resistance to dissolution of the coated tablet (integrity of tablets)", "setting": "[1]; listed as SC3", "result": "delays the dissolution of the tablets significantly"},
      {"measurement": "dissolution of gelatine", "setting": "[2]; dried, H2O, 0.1 N HCl or 0.1 N HCl with 0.4 U/ml pepsin, FIG. 5B", "result": "inhibits the dissolution of gelatine"},
      {"measurement": "dissolution of gelatine in an environment mimicking gastric juices", "setting": "[2]; 0.1 N HCl, with or without 0.4 U/ml pepsin", "result": "reduced"},
      {"measurement": "dissolution of the biopolymer gelatine in water", "setting": "[2]; water", "result": "strongly hampered"},
      {"measurement": "resistance of coated capsules / onset of dye release, acidic environment", "setting": "[3]; alginate with 200 μg/ml protein, pH 1.0, FIG. 3A", "result": "increased resistance to stomach juices"},
      {"measurement": "release characteristics of capsules (dye release)", "setting": "[3]; alginate-coated capsules, 200 μg/ml protein, 0.1 M HCl pH 1.0 with 0.4 U/ml pepsin, FIG. 2B", "result": "essentially the same"},
      {"measurement": "resistance of capsules to acidic conditions (dye release)", "setting": "[3]; capsules submerged in 2% w/v alginate containing 200 μg/ml protein, pH 1.0, FIG. 2A", "result": "comparable to that of gelatine capsules sprayed with hydrophobin"},
      {"measurement": "release of dye from capsules (retention of dye within the capsule)", "setting": "[4]", "result": "prolonged retention of dye within the capsule"},
      {"measurement": "release of dye from capsules (retention of dye within the capsule)", "setting": "[4]; listed as SC3", "result": "resistant to an acidic environment"},
      {"measurement": "release of dye from capsules", "setting": "[4]; sprayed gelatine capsules, 0.1 M HCl pH 1.0 with 0.4 U/ml pepsin, FIG. 1B", "result": "same advantageous release characteristics"}
    ]},
    {"molecule": "PO: class I hydrophobin from Pleurotus ostreatus, accession CAA76494, recombinant from E. coli (protein, UniProt O60048 22-113, looked up) Class I hydrophobin POH3: IPRTNPPAPTCTTGSLQCCNSVQAASNPVVGLLAGLLGIVLGPITGQVGLTCSPITVIGVGGTSCSAQTVCCNGNSFNGLIVVGCSPVNISL", "values": [
      {"measurement": "resistance to dissolution of the coated tablet (integrity of tablets)", "setting": "[1]", "result": "superior to the class II hydrophobin TR"}
    ]}
  ]
}
